The target of experiment [1] is T1, FcγIIIB Fc receptor (UniProt O75015 17-200).
T1 construct: The form used in the Biacore experiments is not described; also called FcγIIIB receptor
In words: Biacore. The protocol: In some cases, antigen-binding protein can interact with an Fc receptor, which may facilitate cell-mediated cytotoxicity. Biacore experiments were conducted to determine whether the antigen-binding protein AHNP-CH2-mimic could bind to the FcγIIIB Fc receptor. […] The interaction between AFc, an antigen binding protein consisting of AHNP linked to the Fc region of an IgG1 antibody, and FcγIIIB was examined for comparative purposes. […] Since FcγIIIB is known to have low affinity to IgG1, the level of affinity observed for AHNP-CH2-mimic is very encouraging. Furthermore, a synthetic CH2-mimic peptide was also observed to compete with the monoclonal antibody 4D5 (IgG1) for binding to the FcγIIIB receptor when analyzed in Biacore experiments. Despite the observed competition for FcγIIIB, direct binding between the CH2-mimic peptide alone and FcγIIIB was not detected, possibly due to the inability for the interaction to be detected by Biacore.
On the technique in general: In SPR one partner is held on a chip, and binding of the other changes the refractive index at the surface.

The target in experiment [2] is T2, Her2/neu receptor expressed on cells (T6-17 cells; SKBR3 cells) (UniProt P04626 23-1255).
T2 construct: whole, on cells; also called p185 HER2/neu
Briefly: FACS on T6-17 cells, 45 min on ice, rabbit anti-His antibody and FITC anti-rabbit antibody. The protocol: Experiments were conducted to determine whether the ALZ construct (SEQ ID NO. 5) could bind to T6-17 cells, which express the Her2/neu receptor. T6-17 cells were incubated with (dark line) or without (light line) ALZ for 45 min on ice and then with a rabbit anti-His antibody followed by a FITC-labeled anti-rabbit antibody. Other antigen-binding proteins were tested in this manner also.

T1 sequence (O75015 17-200): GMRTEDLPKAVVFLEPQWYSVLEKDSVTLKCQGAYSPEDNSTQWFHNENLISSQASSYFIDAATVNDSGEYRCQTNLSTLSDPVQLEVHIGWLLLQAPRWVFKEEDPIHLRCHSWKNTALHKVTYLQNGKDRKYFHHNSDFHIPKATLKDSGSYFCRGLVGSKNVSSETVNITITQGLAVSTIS

Turning to FPAPLAPGGLYLGG [synthetic CH2-mimic peptide], the binding result in experiment [1] is on record as “no binding”.

B1: ALZ (designed binder)
chain: MAFCDGFYACYMDVGGGGGSMASDFLKHCQADHLLDEKGRAQCLLQREMVQSLEQQLVLEKEKLSAMQAHLAGKMALTKASSVASSDKLEHHHHHH
notes: AHNP on the N-terminus of the leucine zipper domain of human FOXP3, with a His-tag; The LZ domain is said to form dimers and tetramers; also called ALZ construct
In the case of B1, the binding result in experiment [2] is listed as “binds”.

The values are drawn from patent publication US20120164066A1 (University of Pennsylvania, published 2012).
